# T1: human VEGFB (human, UniProt P49765-2 22-188, limits assumed, biotinylated (sites not given))
# T1 construct: also called Biotin-HVEGFB
# T1 sequence (looked up): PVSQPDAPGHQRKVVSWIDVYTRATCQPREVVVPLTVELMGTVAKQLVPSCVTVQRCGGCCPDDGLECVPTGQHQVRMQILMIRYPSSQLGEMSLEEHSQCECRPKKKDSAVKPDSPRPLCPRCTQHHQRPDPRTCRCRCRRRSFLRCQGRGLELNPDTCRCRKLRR
# T2: human VEGFC (human, UniProt P49767 112-227, limits assumed, biotinylated (sites not given))
# T2 construct: also called Biotin-HVEGFC
# T2 sequence (looked up): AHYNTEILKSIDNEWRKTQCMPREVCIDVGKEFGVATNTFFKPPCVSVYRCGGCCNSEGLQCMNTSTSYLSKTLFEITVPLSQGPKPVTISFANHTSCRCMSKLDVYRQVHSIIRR
# T3: human VEGFD (human, UniProt O43915 89-205, limits assumed, biotinylated (sites not given))
# T3 construct: also called Biotin-HVEGFD
# T3 sequence (looked up): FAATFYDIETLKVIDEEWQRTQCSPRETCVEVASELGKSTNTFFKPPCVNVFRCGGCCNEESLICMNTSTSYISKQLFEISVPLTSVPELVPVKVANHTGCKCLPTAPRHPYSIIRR
# Legend:
# human VEGFA [1] = target: T4, human VEGFA (human, UniProt P15692-4 27-191, limits assumed, biotinylated (sites not given) in the ELISA assays); assay: cell-based or functional assay
# T4 sequence (P15692 other isoform, or with tags, fused parts or gaps limits assumed): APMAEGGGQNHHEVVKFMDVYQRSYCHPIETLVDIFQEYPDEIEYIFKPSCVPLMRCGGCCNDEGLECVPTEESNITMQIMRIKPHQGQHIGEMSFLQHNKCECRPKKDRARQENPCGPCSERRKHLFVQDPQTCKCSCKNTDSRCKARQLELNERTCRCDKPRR
# human VEGFB = target: T1, human VEGFB; assay: ELISA, antibody coated, biotinylated ligand, SA-HRP
# Description: (§1) ELISA was used to verify whether the candidate antibodies could cross-react with VEGF homologous proteins. (1) 1 ug/mL antibody to be measured was added to the ELISA plate and coated overnight at 4° C. […] (4) After washing with PBST for 5 times, 100 uL diluted SA-HRP (1:5000 diluted) was added at 37° C. and incubated for 1 hour; (5) After washing with PBST for 5 times, TMB solution (100 uL) was added and developed at 37° C. for 10 min, add 2M H₂SO₄ (50 uL/well) was added to terminate the reaction, and the absorption value at 450 nm wavelength was measured with a microplate reader.
# human VEGFC = target: T2, human VEGFC; assay: as above
# Description: as §1
# human VEGFD = target: T3, human VEGFD; assay: as above
# Description: as §1
# human VEGFA [2] = target: T4, human VEGFA; assay: blocking ELISA: VEGFR2 coated, biotinylated VEGFA with antibody dilutions (FIG. 5)
# Description: (§2) (4) After washing with PBST for 5 times, 100 uL SA-HRP (1:100000 dilution) was added and incubated at 37° C. for 1 hour. (5) After washing with PBST for 5 times, TMB chromochrome solution 100 uL was added, and developed at 37° C. for 10 min, 2M H₂SO₄ (50 uL/well) was added to terminate the reaction, and the absorption value was measured at 450 nm wavelength with a microplate reader.
# human VEGFA [3] = target: T4, human VEGFA; assay: blocking ELISA: VEGFR2 coated, biotinylated VEGFA with antibody dilutions (FIG. 6)
# Description: as §2
# human VEGFA [4] = target: T4, human VEGFA; assay: blocking ELISA: VEGFR1 coated, biotinylated VEGFA with antibody dilutions (FIG. 10)
# Description: (1) VEGFR1 protein was coated on an enzyme plate (1 ug/mL, 100 uL/well) and incubated at 4° C. overnight. […] (4) After washing with PBST for 5 times, 100 uL SA-HRP (1:100000 dilution) was added and incubated at 37° C. for 1 hour. (5) After washing with PBST for 5 times, TMB solution (100 uL) was added and developed at 37° C. for 10 min, 2M H₂SO₄ (50 uL/well) was added to terminate the reaction, and the absorption value at 450 nm wavelength was measured with a microplate reader.
# human VEGFA [5] = target: T4, human VEGFA; assay: blocking ELISA: VEGFR2 coated, biotinylated VEGFA with antibody dilutions (FIG. 5); reference huNb24
# Description: as §2
# human VEGFA [6] = target: T4, human VEGFA; assay: blocking ELISA: VEGFR2 coated, biotinylated VEGFA with antibody dilutions (FIG. 1)
# Description: as §2
# human VEGFA [7] = target: T4, human VEGFA; assay: blocking ELISA: VEGFR2 coated, biotinylated VEGFA with antibody dilutions (FIG. 4)
# Description: as §2
"inhibitory effect on HUVEC cell proliferation, IC50 (human VEGFA [1])",binding result (human VEGFB),binding result (human VEGFC),binding result (human VEGFD),IC50 (human VEGFA [2]),IC50 (human VEGFA [3]),IC50 (human VEGFA [4]),fold increase of blocking activity against huNb24 (human VEGFA [5]),"inhibitory effect on HUVEC cell proliferation (CCK8, OD450), IC50 (human VEGFA [1])",IC50 (human VEGFA [6]),IC50 (human VEGFA [7]),Binder
0.0536 µg/mL,no binding (tested: 1 ug/mL),no binding (tested: 1 ug/mL),no binding (tested: 1 ug/mL),0.013 µg/mL,0.022 µg/mL,0.168 µg/mL,> 3 times,–,–,–,"hu bi-Nb24(Y) (VHH, Bivalent tandem VHH, one chain, expressed in Pichia pastoris, no Fc; also called humanized bivalent antibody expressed by the yeast; huNb24 bivalent) EVQLQESGGGLVQPGGSLRLSCTASGFTFDDPDVGWFRQAPGNECELVSTISKDGSTYYTDSVKGRFTISRDYAKNTVYLQMNSLRAEDTAVYYCAADSNPIAPIRTCLGWYNYWGQGTLVTVSSGGGGSGGGSEVQLQESGGGLVQPGGSLRLSCTASGFTFDDPDVGWFRQAPGNECELVSTISKDGSTYYTDSVKGRFTISRDYAKNTVYLQMNSLRAEDTAVYYCAADSNPIAPIRTCLGWYNYWGQGTLVTVSS"
–,–,–,–,–,–,–,–,0.0296 µg/mL,0.0149 µg/mL,0.045 µg/mL,"Nb24 (Fc fusion, also called candidate antibody Nb24; antibody before humanization; not shown: Fc) QVQLQESGGGSVQAGGSLRLSCTASGFTFDDPDVGWFRQAPGNECELVSTISKDGSTYYTDSVKGRFTISQDYAKNTVYLQMNSLKPEDTAVYYCAADSNPIAPIRTCLGWYNYWGQGTQVTVSS"
–,–,–,–,0.044 µg/mL,–,–,–,–,–,0.038 µg/mL,"huNb24 (Fc fusion, also called humanized antibody huNb24; antibody after humanization; not shown: Fc from the pFUSE vector) EVQLQESGGGLVQPGGSLRLSCTASGFTFDDPDVGWFRQAPGNECELVSTISKDGSTYYTDSVKGRFTISRDYAKNTVYLQMNSLRAEDTAVYYCAADSNPIAPIRTCLGWYNYWGQGTLVTVSS"

# — patent US20220324954A1 (SHANGHAI NOVAMAB BIOPHARMACEUTICALS, published 2022)
